Binding Affinity to Mouse MHC Class I (% increase of D^b or K^b on RMA-S cells) and Binding Affinity to Mouse MHC Class I data for 20 molecules are collected here from patent US20090312403A1.

One assay has as its target mouse B6 class I antigens (H-2^b: D^b or K^b) on RMA-S cells (mouse). Briefly: RMA-S cells incubated with peptide (25 ug/ml), flow cytometry with FITC anti-D^b or anti-K^b.
For the molecule CMTWNQMNL [WT1 peptide p235-243 (…)], the Binding Affinity to Mouse MHC Class I (% increase of D^b or K^b on RMA-S cells) amounted to 33.6%. As to GCNKRYFKL [WT1 peptide p329-337 (…)], the Binding Affinity to Mouse MHC Class I (% increase of D^b or K^b on RMA-S cells) turned out to be 1.2%.

As to SCLESQPAI [WT1 peptide human p136-144 (…)], the Binding Affinity to Mouse MHC Class I (% increase of D^b or K^b on RMA-S cells) came out at 52%. Regarding QMTSQLECM [WT1 peptide p228-236 (…)], the Binding Affinity to Mouse MHC Class I (% increase of D^b or K^b on RMA-S cells) was determined as 1.2%. Same read-out and setting: to NQMNLGATL [WT1 peptide p239-247 (…)] belongs 1%. The molecule ALLPAVPSL [WT1 peptide human p10-18 (…)] displayed a Binding Affinity to Mouse MHC Class I (% increase of D^b or K^b on RMA-S cells) of 2.2%.

In turn, YSSDNLYQM [WT1 peptide p221-229 (…)] came in with a Binding Affinity to Mouse MHC Class I (% increase of D^b or K^b on RMA-S cells) of 0.8%. With NLYQMTSQL [WT1 peptide p225-233 (…)], the Binding Affinity to Mouse MHC Class I (% increase of D^b or K^b on RMA-S cells) is 5.8%.

Another assay has the same target. Briefly: binding of 9mer peptide to mouse B6 (H-2^b) class I antigens, RMA-S cell assay.
For the molecule FPNAPYLPS [WT1 peptide P128-136 (…)], the Binding Affinity to Mouse MHC Class I was determined as 1%. The same measure, in the same setting: to SQASSGQAR [WT1 peptide P118-126 (…)] belongs 2%; to NAPYLPSCL [WT1 peptide P130-138 (…)], 79%; to QASSGQARM [WT1 peptide P119-127 (…)], 2%. With SSGQARMFP [WT1 peptide P121-129 (…)], the Binding Affinity to Mouse MHC Class I was 1%.

Molecule PSQASSGQA [WT1 peptide P117-125 (…)] displayed a Binding Affinity to Mouse MHC Class I of 2%. Consider ARMFPNAPY [WT1 peptide P125-133 (…)], for which the Binding Affinity to Mouse MHC Class I amounted to 1%. Regarding MFPNAPYLP [WT1 peptide P127-135 (…)], the Binding Affinity to Mouse MHC Class I came out at 2%.

As for PNAPYLPSC [WT1 peptide P129-137 (…)], the Binding Affinity to Mouse MHC Class I was 1%.

APYLPSCLE [WT1 peptide P131-139 (…)] registered a Binding Affinity to Mouse MHC Class I of 1%. The same measure, in the same setting: to QARMFPNAP [WT1 peptide P124-132 (…)] belongs 1%; to ASSGQARMF [WT1 peptide P120-128 (…)], 1%.
